These results are taken from PMC10394066, “Polymorphic amyloid nanostructures of hormone peptides involved in glucose homeostasis display reversible amyloid formation” (Nature Communications, 2023).

The series concerns the molecule itself. Put plainly: FTIR; 6 mM peptide in water, pH adjusted from 7.2 to 4.2; amide I band 1625–1630 cm^−1; bio-ATR cell.

B1: APR^ex-4 hexapeptide LFIEWL (aggregation-prone region of exendin-4) (peptide)
peptide: LFIEWL
notes: aggregation-prone hexapeptide segment of the non-mammalian exendin-4 (also of exendin-3); free termini; also called LFIEWL (exendin-4); source: synthetic peptide (flow solid-phase synthesis, Fmoc/tBu; RP-HPLC purified)
On to B1, for which the binding result was “binds”.
